# Reference: article doi:10.1101/2025.10.22.684031
# Assays:
# Test in all cases: SPR
# [1] = biological target: N49P7-FR IgG1
# [2] = biological target: eN49P7-FRv1-23 IgG1
# [3] = biological target: N49P7 IgG1
# N49P7 IgG1, sequence (heavy, as listed by the source, chain 1 of 2): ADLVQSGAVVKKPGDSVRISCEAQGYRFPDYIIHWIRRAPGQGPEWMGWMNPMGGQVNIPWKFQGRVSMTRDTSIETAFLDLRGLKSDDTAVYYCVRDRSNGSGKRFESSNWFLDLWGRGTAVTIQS
# N49P7 IgG1, sequence (light, as listed by the source, chain 2 of 2): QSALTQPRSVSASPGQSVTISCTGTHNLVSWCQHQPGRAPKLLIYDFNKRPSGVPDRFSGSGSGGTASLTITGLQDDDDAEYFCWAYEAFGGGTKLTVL
# N49P7-FR IgG1, sequence (VH, as listed by the source, chain 1 of 2): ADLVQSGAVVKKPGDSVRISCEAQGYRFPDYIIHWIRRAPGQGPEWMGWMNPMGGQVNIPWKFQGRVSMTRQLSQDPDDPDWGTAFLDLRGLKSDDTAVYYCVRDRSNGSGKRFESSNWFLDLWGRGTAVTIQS
# N49P7-FR IgG1, sequence (VL, as listed by the source, chain 2 of 2): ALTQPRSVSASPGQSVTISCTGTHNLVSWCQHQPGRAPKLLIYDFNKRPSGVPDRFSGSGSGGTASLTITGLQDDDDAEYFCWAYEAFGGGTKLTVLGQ
# eN49P7-FRv1-23 IgG1, sequence (VH, as listed by the source, chain 1 of 2): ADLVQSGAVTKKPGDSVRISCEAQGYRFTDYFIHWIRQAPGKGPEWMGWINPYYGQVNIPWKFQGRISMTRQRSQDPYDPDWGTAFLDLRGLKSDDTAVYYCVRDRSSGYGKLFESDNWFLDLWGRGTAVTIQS
# eN49P7-FRv1-23 IgG1, sequence (VL, as listed by the source, chain 2 of 2): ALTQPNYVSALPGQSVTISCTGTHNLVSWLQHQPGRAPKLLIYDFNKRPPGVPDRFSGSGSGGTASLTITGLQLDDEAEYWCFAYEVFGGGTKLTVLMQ
Substance,Kd [1] [nM],koff [1] [s⁻¹],kon [1] [M⁻¹ s⁻¹],Kd [2] [nM],koff [2] [s⁻¹],kon [2] [M⁻¹ s⁻¹],Kd [3] [nM],koff [3] [s⁻¹],kon [3] [M⁻¹ s⁻¹]
HIV gp120 93TH057 (clade AE) (natural protein),19,0.0022,120000,29,0.0015,51000,,,
HIV gp120 6041.v3 (clade AC) (natural protein),190,0.0026,14000,24,0.001,44000,100,0.0032,31000
HIV gp120 BJOX2000 (clade BC) (natural protein),> 1000,0.0025,280,50,0.00092,18000,> 1000,0.0024,680
HIV gp120 CAP45 (clade C) (natural protein),140,0.0017,12000,31,0.0031,100000,,,
HIV gp120 CH119 (clade BC) (natural protein),110,0.0008,7400,20,0.00053,27000,,,
HIV gp120 CNE8 (clade AE) (natural protein),15,0.0013,88000,47,0.0011,24000,73,0.00079,11000
HIV gp120 Ce1176 (clade C) (natural protein),63,0.00059,9400,17,0.00069,42000,,,
HIV gp120 IAVI-C22 (clade C) (natural protein),> 1000,0.0014,200,65,0.00092,14000,230,0.0011,4900
HIV gp120 TRO.11 (clade B) (natural protein),120,0.0012,9900,44,0.00074,17000,,,
